Source: publication PMC4686830, “Ankyrin-mediated self-protection during cell invasion by the bacterial predator Bdellovibrio bacteriovorus” (Nature Communications, 2015)

T1: Bd3459:Bd3460 complex (Bd3459^M/Bd3460) (Bdellovibrio bacteriovorus, UniProt Q6MHT0, K38M)
T1 construct: 1:1 heterodimer; with Ankyrin repeat protein (self-protection protein)
T1 sequence (Q6MHT0 38-446 K38M): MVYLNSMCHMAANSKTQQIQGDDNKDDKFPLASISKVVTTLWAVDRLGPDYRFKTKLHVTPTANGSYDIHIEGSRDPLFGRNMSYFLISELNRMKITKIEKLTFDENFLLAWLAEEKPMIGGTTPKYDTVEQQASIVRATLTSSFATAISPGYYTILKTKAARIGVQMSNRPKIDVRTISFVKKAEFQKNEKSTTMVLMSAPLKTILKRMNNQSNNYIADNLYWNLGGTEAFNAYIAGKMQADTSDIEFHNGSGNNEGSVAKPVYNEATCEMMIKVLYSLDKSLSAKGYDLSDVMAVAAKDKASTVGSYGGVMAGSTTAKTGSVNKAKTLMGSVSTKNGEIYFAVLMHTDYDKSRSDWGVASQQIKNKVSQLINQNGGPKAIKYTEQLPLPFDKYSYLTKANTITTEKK
T1 sequence (Q6MHS9 25-220 A25M partner limits assumed): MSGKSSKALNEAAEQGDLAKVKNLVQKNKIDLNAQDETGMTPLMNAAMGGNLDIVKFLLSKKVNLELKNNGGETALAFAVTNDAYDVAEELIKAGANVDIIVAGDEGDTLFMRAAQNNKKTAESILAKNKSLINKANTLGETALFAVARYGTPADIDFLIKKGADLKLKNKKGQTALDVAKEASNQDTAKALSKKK

T2: Bd3459 DD-endopeptidase, new construct starting post signal peptide with K38M, C-terminal H8 tag (Bdellovibrio bacteriovorus HD100, UniProt Q6MHT0 38-446, K38M)
T2 construct: Bd3459 of Bdellovibrio bacteriovorus HD100, predicted secreted form, starting post signal peptide with K38 mutated to become the new N-terminal methionine; The active site serine S70 is unchanged: the crystals of this complex could be acylated with penicillin G. PDB 5CEB holds the same limits with S70A; also called tagged Bd3459; Bd3459^M; source: E. coli T7 express, co-expressed from pCDF-Duet1 …
T2 sequence (looked up): T1 sequence (Q6MHT0 38-446 K38M)

T3: Bd0816 DD-endopeptidase S58A (K26M start, C-terminal H8 tag) (Bdellovibrio bacteriovorus HD100, UniProt Q6MPN2 26-436, K26M | S58A)
T3 construct: Bd0816 of Bdellovibrio bacteriovorus HD100, starting at K26M; active site serine mutated to alanine (S58A); Expression of wild-type Bd0816 was toxic, so the S58A mutant was used for the complex; It is a trimer in the crystal, while a 1:1 heterodimer with Bd3460 is said to dominate in solution; also called Bd0816 S58A; tagged Bd0816; source: E. coli T7 express, co-expressed from pCDF-Duet1 with …
T3 sequence (looked up): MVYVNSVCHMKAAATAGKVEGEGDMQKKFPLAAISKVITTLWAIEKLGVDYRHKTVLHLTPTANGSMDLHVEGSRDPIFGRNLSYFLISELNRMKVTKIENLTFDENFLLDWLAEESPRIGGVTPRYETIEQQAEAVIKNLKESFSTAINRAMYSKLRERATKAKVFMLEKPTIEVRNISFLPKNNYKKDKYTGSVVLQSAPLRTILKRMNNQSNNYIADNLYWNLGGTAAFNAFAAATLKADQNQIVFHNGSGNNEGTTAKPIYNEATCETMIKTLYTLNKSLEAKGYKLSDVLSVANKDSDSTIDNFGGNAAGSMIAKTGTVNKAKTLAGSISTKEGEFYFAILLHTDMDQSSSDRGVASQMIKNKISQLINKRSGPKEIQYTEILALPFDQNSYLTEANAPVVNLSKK

B1: Bd3460, exported domain (amino acids 26-220), untagged, co-expressed with an endopeptidase (natural protein, Bdellovibrio bacteriovorus HD100, UniProt Q6MHS9 25-220, looked up)
chain: T1 sequence (Q6MHS9 25-220 A25M partner limits assumed)
notes: The only change is the start methionine in place of A25; also called untagged Bd3460; source: E. coli T7 express, co-expressed from pCDF-Duet1 with the H8-tagged endopeptidase, co-purified (His column)

Legend:
[1] = molecular target: T1, Bd3459:Bd3460 complex (Bd3459^M/Bd3460); experiment: X-ray crystallography, […] A, crystal soak; type: binding; conditions: covalent; acylation of active-site serine (Ser70) of Bd3459; pre-grown complex crystals soaked with 2 mM penicillin G for 1 h
[2] = molecular target: Bd3459 DD-endopeptidase, purified, active site serine acylated by penicillin G (Bdellovibrio bacteriovorus HD100) (UniProt Q6MHT0); experiment: other fluorescence titration; as a2, but Bd3459 pre-incubated with 0.75 mM penicillin G before titration with Bd3460
[3] = molecular target: T2, Bd3459 DD-endopeptidase, new construct …; experiment: co-purification (His-tag affinity); H8-tagged endopeptidase and untagged Bd3460 co-expressed in E. coli and purified together on a His column; buffer C (20 mM imidazole pH 8.0, 0.4 M NaCl, 0.05% w/v Tween20); conditions: partners not purified
[4] = molecular target: T3, Bd0816 DD-endopeptidase S58A (K26M …); experiment: as above; conditions: partners not purified
[5] = molecular target: Bd3459 DD-endopeptidase, purified (original construct, A37M start) (Bdellovibrio bacteriovorus HD100) (UniProt Q6MHT0); experiment: other fluorescence titration; intrinsic tryptophan fluorescence, excitation 280 nm, change of emission at 340 nm; 10 uM Bd3459 in the cuvette, Bd3460 titrated in; 25 °C; buffer B with Tris (10 mM pH 7.2, 0.25 M NaCl); one site-specific binding isotherm

Row | Molecule | X-ray crystallography, 2.02 A, crystal soak [1] | fold reduction in affinity against unacylated Bd3459 [2] [fold] | stoichiometry N [3] | stoichiometry N [4] | Kd [5] [µM]
1 | CC1(C)S[C@@H]2[C@H](NC(=O)Cc3ccccc3)C(=O)N2[C@H]1C(=O)O [penicillin G] | acylating pre-grown Bd3459:Bd3460 complex crystals with penicillin G |  |  |  | 
2 | B1 |  | 2 | 1 | 1 | 26.8
